{
  "source": "patent US20150086555A1",
  "about": "(THERACLONE SCIENCES, published 2015)",
  "binders": {"B1": {"name": "TCN-532 (5262_H18) (antibody, V domains shown)", "VH": "QVQLQESGPGLVKPSETLSLTCTVSGGSVSSETYYWSWIRQPPGKGLEWIGYIYYIGNTDYRPSLKSRVTISLDTSKNQFSLKLSSVTAADTAVYYCARGAYYDSSGYPAFYIWGQGTMVTVSS", "VL": "QSVLTQPPSVSGAPGQRVTISCTGSSSNIGSDYDVHWYKQLPGTAPKLLIFGNSNRPSGVPDRFSGSKSGTSASLAITGLQAEDEADYYCQSYDSSLSGFHVFGSGTKVTVL"}, "B2": {"name": "TCN-533 (5256_A17a) (antibody, V domains shown)", "VH": "QVQLVQSGADVKKPGSSVTVSCKASGGSFSNYGINWVRQAPGQGLEWMGGIIPLINAPNYAPKFQGRVTITADMFSNIVSLQLTSLRTDDTAVYYCARRKMTTAIDYWGQGTLVTVSS", "VL": "QPVLTQPPSASASLGASVTLTCTLSSAYSNYKVDWYQQRPGKGPRFVMRVGTGGIVGSKGDGIPDRFSVLGSGLNRYLTIKNIQEEDESDYHCGADHGSGSNFVSPYVFGGGTKLTVL"}, "B3": {"name": "TCN-556 (5089_K12) (antibody, V domains shown)", "VH": "QVQLVQSGAEVKKPGASVKVSCKASGYTFIGYDMHWVRQAPGQGLEWMGWINAKRGGTNYAQKFQGRVTMTRDTSISTAYMELNSLRSDDTAVYYCARGVGSRTTIFGVLNPEFDYWGQGTLVTVSS", "VL": "QSALTQPPSASGSPGQSVTISCTGSSSDVGGYDYVSWYQQHPGKAPKLLIYEVTKRPSGVPDRFSGSKSGNTASLTVSGLQAEDEADYYCSSYAGNYNHVFGPGTKVTVL"}},
  "key": {"[1]": {"target": "T1, hemagglutinin (HA) of influenza A/Japan/305/57 (H2N2) on whole virions (Influenza A virus A/Japan/305/1957(H2N2), UniProt P03451 16-562)", "assay": "ELISA, purified IgG on inactivated whole virions"}, "[2]": {"target": "T1, hemagglutinin (HA) of influenza …", "assay": "ELISA; BCC supernatant on coated inactivated whole virions"}, "[3]": {"target": "recombinant soluble homotrimeric HA of A/California/4/09 (H1N1) (Influenza A virus …)", "assay": "HA microarray, BCC supernatant"}, "[4]": {"target": "recombinant soluble homotrimeric HA of A/Solomon Islands/3/06 (H1N1) (Influenza A virus A/Solomon …)", "assay": "HA microarray, BCC supernatant"}, "[5]": {"target": "recombinant soluble homotrimeric HA of A/Japan/305/57 (H2N2) (Influenza A virus A/Japan/305/1957(H2N2))", "assay": "HA microarray, BCC supernatant"}, "[6]": {"target": "recombinant soluble homotrimeric HA of A/Wisconsin/67/05 (H3N2) (Influenza A virus …)", "assay": "HA microarray, BCC supernatant"}, "[7]": {"target": "recombinant soluble homotrimeric HA of A/swine/Ontario/01911-2/99 (H4N6) (Influenza A virus …)", "assay": "HA microarray, BCC supernatant"}, "[8]": {"target": "recombinant soluble homotrimeric HA of A/Vietnam/1203/04 (H5N1) (Influenza A virus …)", "assay": "HA microarray, BCC supernatant"}, "[9]": {"target": "recombinant soluble homotrimeric HA of A/Indonesia/5/05 (H5N1) (Influenza A virus …)", "assay": "HA microarray, BCC supernatant"}, "[10]": {"target": "recombinant soluble homotrimeric HA of A/Egypt/3300-NAMRU3/08 (H5N1) (Influenza A virus …)", "assay": "HA microarray, BCC supernatant"}, "[11]": {"target": "recombinant soluble homotrimeric HA of A/Anhui/1/05 (H5N1) (Influenza A virus A/Anhui/1/2005(H5N1))", "assay": "HA microarray, BCC supernatant"}, "[12]": {"target": "recombinant soluble homotrimeric HA of A/chicken/Vietnam/NCVD-016/08 (H5N1) (Influenza A virus …)", "assay": "HA microarray, BCC supernatant"}, "[13]": {"target": "recombinant soluble homotrimeric HA of A/northern shoveler/California/HKWF115/07 (H6) (Influenza A virus A/northern …)", "assay": "HA microarray, BCC supernatant"}, "[14]": {"target": "recombinant soluble homotrimeric HA of A/Netherlands/219/03 (H7N7) (Influenza A virus …)", "assay": "HA microarray, BCC supernatant"}, "[15]": {"target": "recombinant soluble homotrimeric HA of A/duck/Yangzhou/02/05 (H8N4) (Influenza A virus …)", "assay": "HA microarray, BCC supernatant"}, "[16]": {"target": "recombinant soluble homotrimeric HA of A/Hong Kong/2108/03 (H9N2) (Influenza A virus A/HK/2108/2003(H9N2))", "assay": "HA microarray, BCC supernatant"}, "[17]": {"target": "recombinant homotrimeric HA A/California/4/09 H1N1 (Influenza A virus …)", "assay": "protein microarray, purified IgG, trimeric HA"}, "[18]": {"target": "recombinant homotrimeric HA A/Solomon Islands/3/06 H1N1 (Influenza A virus A/Solomon …)", "assay": "protein microarray, purified IgG, trimeric HA"}, "[19]": {"target": "recombinant homotrimeric HA A/South Carolina/1/18 H1N1 (Influenza A virus A/South Carolina/1/18 …)", "assay": "protein microarray, purified IgG, trimeric HA"}, "[20]": {"target": "recombinant homotrimeric HA A/Japan/305/57 H2N2 (Influenza A virus A/Japan/305/1957(H2N2))", "assay": "protein microarray, purified IgG, trimeric HA"}, "[21]": {"target": "recombinant homotrimeric HA A/Wisconsin/67/05 H3N2 (Influenza A virus …)", "assay": "protein microarray, purified IgG, trimeric HA"}, "[22]": {"target": "recombinant homotrimeric HA A/swine/Ontario/01911-2/99 H4N6 (Influenza A virus …)", "assay": "protein microarray, purified IgG, trimeric HA"}, "[23]": {"target": "recombinant homotrimeric HA A/Vietnam/1203/04 H5N1 (Influenza A virus …)", "assay": "protein microarray, purified IgG, trimeric HA"}, "[24]": {"target": "recombinant homotrimeric HA A/Indonesia/5/05 H5N1 (Influenza A virus …)", "assay": "protein microarray, purified IgG, trimeric HA"}, "[25]": {"target": "recombinant homotrimeric HA A/Egypt/3300-NAMRU3/08 H5N1 (Influenza A virus …)", "assay": "protein microarray, purified IgG, trimeric HA"}, "[26]": {"target": "recombinant homotrimeric HA A/Anhui/1/05 H5N1 (Influenza A virus A/Anhui/1/2005(H5N1))", "assay": "protein microarray, purified IgG, trimeric HA"}, "[27]": {"target": "recombinant homotrimeric HA A/chicken/Vietnam/NCVD-016/08 H5N1 (Influenza A virus …)", "assay": "protein microarray, purified IgG, trimeric HA"}, "[28]": {"target": "recombinant homotrimeric HA A/Hong Kong/156/97 H5N1 (Influenza A virus A/Hong Kong/156/97 …)", "assay": "protein microarray, purified IgG, trimeric HA"}, "[29]": {"target": "recombinant homotrimeric HA A/northern shoveler/California/HKWF115/07 H6N4 (Influenza A virus A/northern …)", "assay": "protein microarray, purified IgG, trimeric HA"}, "[30]": {"target": "recombinant homotrimeric HA A/Netherlands/219/03 H7N7 (Influenza A virus …)", "assay": "protein microarray, purified IgG, trimeric HA"}, "[31]": {"target": "recombinant homotrimeric HA A/duck/Yangzhou/02/05 H8N4 (Influenza A virus …)", "assay": "protein microarray, purified IgG, trimeric HA"}, "[32]": {"target": "recombinant homotrimeric HA A/Hong Kong/2108/03 H9N2 (Influenza A virus A/HK/2108/2003(H9N2))", "assay": "protein microarray, purified IgG, trimeric HA"}, "[33]": {"target": "recombinant homotrimeric HA A/Hong Kong/1073/99 H9N2 (Influenza A virus A/Hong Kong/1073/99 …)", "assay": "protein microarray, purified IgG, trimeric HA"}},
  "data": [
    {"binder": "B1", "values": [
      {"measurement": "binding result", "setting": "[1]", "value": "no binding"},
      {"measurement": "ELISA virus binding (OD450)", "setting": "[2]", "value": 0.07, "unit": "OD450"}
    ]},
    {"binder": "B2", "values": [
      {"measurement": "Trimeric HA Binding: RLU", "setting": "[3]", "value": 29300, "unit": "RLU"},
      {"measurement": "Trimeric HA Binding: RLU", "setting": "[4]", "value": 39200, "unit": "RLU"},
      {"measurement": "Trimeric HA Binding: RLU", "setting": "[5]", "value": 10800, "unit": "RLU"},
      {"measurement": "Trimeric HA Binding: RLU", "setting": "[6]", "value": 13800, "unit": "RLU"},
      {"measurement": "Trimeric HA Binding: RLU", "setting": "[7]", "value": 1580, "unit": "RLU"},
      {"measurement": "Trimeric HA Binding: RLU", "setting": "[8]", "value": 5680, "unit": "RLU"},
      {"measurement": "Trimeric HA Binding: RLU", "setting": "[9]", "value": 44100, "unit": "RLU"},
      {"measurement": "Trimeric HA Binding: RLU", "setting": "[10]", "value": 34300, "unit": "RLU"},
      {"measurement": "Trimeric HA Binding: RLU", "setting": "[11]", "value": 8060, "unit": "RLU"},
      {"measurement": "Trimeric HA Binding: RLU", "setting": "[12]", "value": 47700, "unit": "RLU"},
      {"measurement": "Trimeric HA Binding: RLU", "setting": "[13]", "value": 41400, "unit": "RLU"},
      {"measurement": "Trimeric HA Binding: RLU", "setting": "[14]", "value": 2470, "unit": "RLU"},
      {"measurement": "Trimeric HA Binding: RLU", "setting": "[15]", "value": 24700, "unit": "RLU"},
      {"measurement": "Trimeric HA Binding: RLU", "setting": "[16]", "value": 172, "unit": "RLU"}
    ]},
    {"binder": "B3", "values": [
      {"measurement": "Trimeric HA Binding: RLU", "setting": "[17]", "value": 25800, "unit": "RLU"},
      {"measurement": "Trimeric HA Binding: RLU", "setting": "[18]", "value": 24300, "unit": "RLU"},
      {"measurement": "Trimeric HA Binding: RLU", "setting": "[19]", "value": 21000, "unit": "RLU"},
      {"measurement": "Trimeric HA Binding: RLU", "setting": "[20]", "value": 25800, "unit": "RLU"},
      {"measurement": "Trimeric HA Binding: RLU", "setting": "[21]", "value": 2360, "unit": "RLU"},
      {"measurement": "Trimeric HA Binding: RLU", "setting": "[22]", "value": 24100, "unit": "RLU"},
      {"measurement": "Trimeric HA Binding: RLU", "setting": "[23]", "value": 21500, "unit": "RLU"},
      {"measurement": "Trimeric HA Binding: RLU", "setting": "[24]", "value": 23000, "unit": "RLU"},
      {"measurement": "Trimeric HA Binding: RLU", "setting": "[25]", "value": 24800, "unit": "RLU"},
      {"measurement": "Trimeric HA Binding: RLU", "setting": "[26]", "value": 26900, "unit": "RLU"},
      {"measurement": "Trimeric HA Binding: RLU", "setting": "[27]", "value": 22400, "unit": "RLU"},
      {"measurement": "Trimeric HA Binding: RLU", "setting": "[28]", "value": 18600, "unit": "RLU"},
      {"measurement": "Trimeric HA Binding: RLU", "setting": "[29]", "value": 25000, "unit": "RLU"},
      {"measurement": "Trimeric HA Binding: RLU", "setting": "[30]", "value": 21000, "unit": "RLU"},
      {"measurement": "Trimeric HA Binding: RLU", "setting": "[31]", "value": 18300, "unit": "RLU"},
      {"measurement": "Trimeric HA Binding: RLU", "setting": "[32]", "value": 25600, "unit": "RLU"},
      {"measurement": "Trimeric HA Binding: RLU", "setting": "[33]", "value": 995, "unit": "RLU"}
    ]}
  ]
}
